This note sets out measurements from patent publication US10155985B2, “Evaluation of eosinophilic esophagitis” (CHILDREN'S HOSPITAL MEDICAL CENTER, priority 2004, dated 2018).

The test system of the data set is EE transcriptome. Put plainly: Genome-wide microarray transcript profiling of esophageal biopsies, EE patients vs normal individuals (EE transcriptome). The following applies: Affymetrix Human Genome U133 plus 2, p<0.01. The protocol: Esophageal tissue obtained from patients previously diagnosed with EE was analyzed. Diagnosis was based on analysis of excised tissue from endoscopic biopsy. Tissues from patients with EE, as well as patients not having EE (controls) were subjected to genome-wide microarray transcript profiling (Affymetrix GeneChip). All work was performed at the Core facility at Children's Hospital Medical Center (Cincinnati Ohio).
Briefly, RNA quality was first assessed using the Agilent bioanaiyzer (Agilent Technologies, Palo Alto Calif.). Only mRNA having a ratio of 28S/18S between 1.3 and 2 were subsequently used. RNA was converted to cDNA with Superscript choice for cDNA synthesis (Invitrogen, Carlsbad Calif.) and subsequently converted to biotinylated cRNA with Enzo High Yield RNA Transcript labeling kit (Enzo Diagnostics, Farmingdale N.Y.). After hybridization to the GeneChip (Affymetrix, Santa Clara Calif.), the chips were automatically washed and stained with streptavidin-phycoerythrin using a fluidics system. The chips were scanned with a Hewlett Packard GeneArray Scanner. Over 30,000 unique genes were screened.
Levels of gene transcripts were determined from data image files, using algorithms in the Microarray Analysis Suite software (Affymetrix). Levels from chip to chip were compared by global scaling. Each gene was typically represented by a probe set of 16 to 20 probe pairs. Each probe pair consisted of a perfect match oligonucleotide and a mismatch oligonucleotide that contained a one base mismatch at a central position. Two measures of gene expression were used, absolute call and average difference. Absolute call is a qualitative measure in which each gene is assigned a call of present, marginal or absent, based on the hybridization of the RNA to the probe set. Average difference is a quantitative measure of the level of gene expression, calculated by taking the difference between […] of every probe pair and averaging the differences over the entire probe set. Data were normalized and an EE transcriptome gene list was created with results having p<0.01 (Welch t-test with or without false rate discovery) and ≥1.5-fold change.
For evaluation of EE using clinical and/or physical assessment, biopsy tissues (obtained from the distal esophagus during routine endoscopy) were submerged in formalin for routine pathological analysis with hematoxylin and eosin staining. Diagnosis was established based on the maximum eosinophil count per high power field (hpf) and basal layer expansion according to method known in the art (e.g., established criteria in Rothenberg et al., Pathogenesis and clinical features of eosinophilic esophagitis. J Allergy Clin Immunol 108 (2001) 891; Attwood et al., Esophageal eosinophilia with dysphagia. A distinct clinicopathologic syndrome. Dig Dis Sci 38 (1993)109; Fox et al., Eosinophilic esophagitis: its not just kid's stuff. Gastrointest Endosc 56 (2002) 26, each of which is expressly incorporated by reference herein in its entirety. Normal individuals (NL), n=13, served as a control and were defined as having 0 eosinophils/hpf and no basal layer expansion. Individuals with EE (n=76) were defined as having >24 eosinophils/hpf and extensive basal layer hyperplasia (expansion to about >⅓ of epithelium).
The data were analyzed by cluster analysis and ordered (standard correlation (A) and distance (B)) using Genespring software. […] Each column represented a separate individual and each line a gene. RNA from each patient was subjected to chip analysis using Affymetrix Human Genome U133 GeneChip plus 2.

The mark [1] stands for this setting: transcript level in esophageal biopsies of EE patients compared to normal individuals (NL), >1 up-regulated, <1 down-regulated.

B1: SEQ_ID_#807 (nucleic acid, listed as Homo sapiens)
DNA: TTAGCATTTTTAAATTTTATTATGACTTCATTTGTTTAAATATATATATATATATATATATATATATTTATTTATAGCTCTATGTGCCCACCGCCCCCGGCCCCCTCCCCGGCCCCTAGTTTTTCCCCCTGGCTTTCTGTCTAGTGGCTGTGTAGGGCAGAACCGTCTGCGTGCTCTTGTCTGACACTGTCTGGGTGCTGCTGTTCCTCGTGACCCTTCGAGTCTGTTCAGGGGCCAAGGTAGAGCCTGAGTGGCGGCTGGTCAGTGGAGAGCGCCGTGACTTGTAGGGGGCTGGGGAGGGCTTGTGGGGGCCTGCATGGGCCTCTGTATGGGCAGGCTCAGGGGGCAAGCCCACTTCTTCCTCCTCCACCTCCTGCTCACCGTCCCCCTCCTCATCGTC
In the case of B1, under setting [1], the “Fold Change” value was 1.514.

B2: S100P (nucleic acid, listed as Homo sapiens)
DNA: TGAGGCTGCCTTATAAAGCACCAAGAGGCTGCCAGTGGGACATTTTCTCGGCCCTGCCAGCCCCCAGGAGGAAGGTGGGTCTGAATCTAGCACCATGACGGAACTAGAGACAGCCATGGGCATGATCATAGACGTCTTTTCCCGATATTCGGGCAGCGAGGGCAGCACGCAGACCCTGACCAAGGGGGAGCTCAAGGTGCTGATGGAGAAGGAGCTACCAGGCTTCCTGCAGAGTGGAAAAGACAAGGATGCCGTGGATAAATTGCTCAAGGACCTGGACGCCAATGGAGATGCCCAGGTGGACTTCAGTGAGTTCATCGTGTTCGTGGCTGCAATCACGTCTGCCTGTCACAAGTACTTTGAGAAGGCAGGACTCAAATGATGCCCTGGAGATGTCACAGATTCCTGGCAGAGCCATGGTCCCAGGCTTCCCAAAAGTGTTTGTTGGCAATTATTCCCCTAGGCTGAGCCTGCTCATGTACCTCTGATTAATAAATGCTTATGAAATGA
Take B2: under setting [1], the “Fold Change” value amounted to 1.52.

B3: SEQ_ID_#808 (nucleic acid, listed as Homo sapiens)
DNA: TTTCACTATAGAAAACCTTTAATAACAACTTCAGATTTACATGACCCTTCTGGTGCTCAGAACACTATGGATTAACACACACACTGGAAAGATACAGACACAGGAATCTGCTGCATTACCCCAAATGGCAAAGTCTTGACTGGGGCTTCAGCTCCTTTCCCAATCCAAAATTGGCACCTTTTTCCATGGAAATTCAAACTGCATCTCTAAATGATGGGGTACATGAACTGTCTGTTTCAAAAGTATTTAAAAACAAACAGGAAGTACAGCTTCCATTTCATTAAGAAAACACCACCACAAGACATGGTGCAGTATCTACTAGCTTAAAGTTTATCACTCCATTAGGGCTTATTGACAGCAGAAATGTGAATGTAGTAATGTAGAAATAAGGAAGAGAGCACTTAAGAAAAAAACAGTACAGAAGTTTTAGAGTTTTTTAAACTTTAATAATATGCTTGACTAATATAGTCAAAAGTGATATGCACTCGTGAAATTAACCCATTTTCTGAAGTCCAAATTAGCTATTAAAGTCTTTTTTTACCAAAAACATATAAGGATTTAGTACACTATATAGATTACATAGCTTTCCT
As to B3, the “Fold Change” value under setting [1] was found to be 1.513.

B4: SEQ_ID_#72 (nucleic acid, listed as Homo sapiens)
DNA: AGCTATTCATTCATTTAATGAATATTTTTAATATCGATGTACATGCCAGATAATGAAGAGGAGGGGTGTTACAGAAGTATACAACAAATTGTATCATTCAGCAATCCTTTATCCTAGTGGGGAAGATGACTATACAGATAATTACAACTTAAGGCCATTTTTTGGATAAGAAACATAAAAGTGGTACAAACAAAAGTTCAAGGAGGCAAAGACCACTTCTTATTCTGGTTATATGGATAGCCTTCATGGAGAAGGCTTCATGACAGTTGGGTTGGGTCTTGAAGATGTCTACAGGTAGAGCCTCAGAAAAAGGAATATGAAACATAGGGAACAGTAGGAGGAGGGCAGCTTTAGTGACTGGCTCGGTTATACTAGAGCATTGGGATTGTAGAGGAGAATCATGATTGATTAAGGCTATATAGGGCAGTTAGGGCCAGATACTGGGGGAATTTGAATATCAGACTGTTATTTGATGAACAGTGGGAGCAGCTGAAGGTTTTTTTTTTTTTTTTAAAAAAAACAACCTTATTAAGGTAGTG
As for B4, the “Fold Change” value (transcript level in esophageal biopsies of EE patients (n=76) compared to normal individuals (n=13)) is listed as 4.374.
